Target: T1, XPF (UniProt Q92889 1-916)
T1 sequence (looked up): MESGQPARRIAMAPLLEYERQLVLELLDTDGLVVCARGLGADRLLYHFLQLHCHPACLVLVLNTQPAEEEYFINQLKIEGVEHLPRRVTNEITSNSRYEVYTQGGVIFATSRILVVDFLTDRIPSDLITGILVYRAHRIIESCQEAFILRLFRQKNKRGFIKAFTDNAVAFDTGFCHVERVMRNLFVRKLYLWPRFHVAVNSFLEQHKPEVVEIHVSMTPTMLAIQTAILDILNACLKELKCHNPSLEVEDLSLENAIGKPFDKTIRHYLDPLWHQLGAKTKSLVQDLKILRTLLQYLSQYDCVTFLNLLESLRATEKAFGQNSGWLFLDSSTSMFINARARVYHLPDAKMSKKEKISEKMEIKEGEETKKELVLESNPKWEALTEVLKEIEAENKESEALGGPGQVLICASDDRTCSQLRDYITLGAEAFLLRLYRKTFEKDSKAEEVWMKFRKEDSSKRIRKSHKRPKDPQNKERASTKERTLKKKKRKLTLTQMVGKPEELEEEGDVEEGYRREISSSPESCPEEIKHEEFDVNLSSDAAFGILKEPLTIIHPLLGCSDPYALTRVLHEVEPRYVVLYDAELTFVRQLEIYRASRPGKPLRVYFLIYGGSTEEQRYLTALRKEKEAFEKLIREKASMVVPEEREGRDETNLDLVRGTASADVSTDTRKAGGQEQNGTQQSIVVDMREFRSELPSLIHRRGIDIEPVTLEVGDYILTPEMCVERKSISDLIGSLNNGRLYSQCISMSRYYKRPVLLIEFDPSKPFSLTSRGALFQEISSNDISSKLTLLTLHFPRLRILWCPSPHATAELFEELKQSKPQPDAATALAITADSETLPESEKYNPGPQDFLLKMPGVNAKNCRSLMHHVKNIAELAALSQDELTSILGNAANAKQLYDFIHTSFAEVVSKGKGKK
Experiment: SPR

B1: ERCC1 (natural protein, UniProt P07992 1-297, looked up)
chain: MDPGKDKEGVPQPSGPPARKKFVIPLDEDEVPPGVAKPLFRSTQSLPTVDTSAQAAPQTYAEYAISQPLEGAGATCPTGSEPLAGETPNQALKPGAKSNSIIVSPRQRGNPVLKFVRNVPWEFGDVIPDYVLGQSTCALFLSLRYHNLHPDYIHGRLQSLGKNFALRVLLVQVDVKDPQQALKELAKMCILADCTLILAWSPEEAGRYLETYKAYEQKPADLLMEKLEQDFVSRVTECLTTVKSVNKTDSQTLLTTFGSLEQLIAASREDLALCPGLGPQKARRLFDVLHEPFLKVP
  Kd: ~5 nM

— article PMC3488251 (Nucleic Acids Research, 2012)
